Source: article PMC5727262 (Scientific Reports, 2017)

Biological target: T1, Ubc9 (wild type) (UniProt P63279 1-158)
T1 construct: Ubc9, the single SUMO conjugating enzyme (E2); the crystal structure PDB 2GRN chain a served as its model; Uniformly 15N-labelled for NMR; also called WT Ubc9; Ubc9WT; source: recombinant, purified (Ni-NTA chromatography, gel filtration)
Assay: ITC; 2 μl additions of peptide to 200 μl of WT Ubc9 or Ac-Ubc9K65; 25 °C; pH 8.0, 20 mM potassium phosphate, 100 mM NaCl; iTC200; fitted assuming 1:1 binding stoichiometry
Conditions: both partners purified

T1 sequence (P63279 whole entry): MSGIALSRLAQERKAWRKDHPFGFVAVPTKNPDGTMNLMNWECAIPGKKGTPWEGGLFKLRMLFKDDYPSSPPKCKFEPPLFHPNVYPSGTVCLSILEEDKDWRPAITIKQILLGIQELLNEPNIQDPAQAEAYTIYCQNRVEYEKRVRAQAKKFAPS

- Kd: 57 µM
B1: CBP NDSM peptide (peptide)
chain: VKVEVKEEEESSSN
modifications: Synthetic peptide; true ends and caps are only in Figure 1A. Limits used here are the Psi-K-x-E core through x10 (x1-x10 = VKEEEESSSN, Supplementary Table 1), around sumoylation site K1056
